Target: MD39 stabilized gp140 HIV Env trimer (HIV)
Assay: SEC-MALS

Work on “MD39 stabilized gp140 HIV Env trimer (domain or fragment)” yielded a stoichiometry N of 3.

— publication PMC7069805
